According to the supplement of paper PMC12764529:
± gives the half width of the 95% confidence interval.

Experiments:
[1] = folding stability dG unfold from trypsin proteolysis; higher = more stable
Method in brief: (§1)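 Sequencing followed digestion of designed mini-proteins with trypsin and chymotrypsin, each at 11 concentrations in threefold dilutions together with a no-protease condition. The mini-proteins were under 80 residues, had no cysteine, sat in a PA-tagged cDNA display construct, and were kept only if AlphaFold2 dimer inter-PAE was above 15. From the counts, Bayesian fitting gave K50, and unfolding free energy was derived against a sequence-predicted unfolded-state K50 and a shared folded-state K50, per protease or combined.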

[2] = folding stability dG unfold from chymotrypsin proteolysis; higher = more stable
Method in brief: as §1

[3] = folding stability dG unfold (combined trypsin and chymotrypsin); higher = more stable
Method in brief: as §1

Sequence	folding stability dG unfold [1] [kcal/mol]	folding stability dG unfold [2] [kcal/mol]	folding stability dG unfold [3] [kcal/mol]
SAGGSAGGSVEKLKKALEKLGIKVENVKIEVKTNKNGKKTVTIYVNGKKLSKEEIKKALKEIKSAGGSAGGS [r12_175_TrROS_Hall]	2.99 ± 0.23	4.46 ± 0.33	4.24 ± 0.44
SAGGSAGGSVESATTTITITASLTPEEVEEIIEELKKKGLNVKKVEIEREPETGSVTITVTVNPSAGGSAGG [r6_514_JUSTAS]	3.2 ± 0.1	2.92 ± 0.075	3.14 ± 0.093
SAGGSAGGSVKITTEPDPNGYYRVTVTIRLNDKPIPVDMPFPPGKTPDQVKEKARDIAKELLKSAGGSAGGS [r12_69_TrROS]	0.249 ± 0.089	0.546 ± 0.13	0.455 ± 0.091
SAGGSAGGSVKPGQEIEVRVELTYDEETGELTIRREVVNKETGELIAEEEITISLEDLPPELLSAGGSAGGS [r12_145_TrROS_Hall]	1.83 ± 0.083	1.51 ± 0.04	1.63 ± 0.076
SAGGSAGGSVRIPGGQPNTKVTVTVRLPDGTPVEVEATVNPSGEITLDLPDVSPDLIESIELSSAGGSAGGS [r12_477_JUSTAS]	1.14 ± 0.019	0.478 ± 0.027	0.82 ± 0.038
SAGGSAGGSWGTISIRIEFNFMAFDPGLGQFSMFPMEVYISIPIEIPPPPPPPKPKYDNGKPKSAGGSAGGS [r12_140_TrROS]	2.6 ± 0.28	4.52 ± 0.21	3.78 ± 0.29
SAGGSAGGSWITPEWIEEIARYLARELGIDDVKIEVERRPDGYVTVEIRNPANGRKVEITVPWSAGGSAGGS [r12_1000_TrROS]	3.38 ± 0.14	3.06 ± 0.1	3.16 ± 0.19
SAGGSAGGSWIWVIKIENPEKGREYTFFIPGPLEDIKDHIREWNPDPDVKVEIQRIPVSPEAFSAGGSAGGS [r12_92_TrROS]	1.68 ± 0.054	2.11 ± 0.096	1.89 ± 0.094
SAGGSAGGSYLDPNKVYLVETEVVGDKVVFTLRDPETGETFVLEADASKEVLKPGDRVLALVASAGGSAGGS [r12_525_TrMRF]	1.47 ± 0.047	1.97 ± 0.065	1.82 ± 0.12
SAGGSAGGVIRMPFVIPDGYVIKDLTVHWSPGNGMFMIEIEIEPVKPPPPPEISPEELNKKNNKSAGGSAGG [r6_148_TrROS]	2.15 ± 0.21	2.57 ± 0.04	2.41 ± 0.12
SAGGSAGGVTINFPDGVTIMVDPGTGKIYIMNPNGYIFKFTIERKPNEWKLKIEPIKPIPPDDFSAGGSAGG [r6_324_TrROS]	2.55 ± 0.085	3.7 ± 0.091	3.16 ± 0.19
SAGGSAGGVVVVAKFPTREAVFVAPESLTPEQFAEALRRELGNPDAPLVDLEVRRVTPEELLAASAGGSAGG [r6_120_TrMRF]	-0.269 ± 0.16	1.05 ± 0.12	0.691 ± 0.15
SAGGSAGGWFYIMFPIPPGYKVEAEWKFPNGPKVKSEIHPDGPIMITIPPGMANMPDFEIKIEPSAGGSAGG [r6_237_TrROS]	2.35 ± 0.12	3.77 ± 0.084	3.2 ± 0.15
SAGGSAGGWIPVEELAKEFGFSPDFIEQLMKNGYKIEYEYHEPGWVRLSVENPDNGKKREITFPSAGGSAGG [r6_969_TrROS]	1.43 ± 0.022	2.183 ± 0.019	1.92 ± 0.053
SAGGSAGGWIRVDKVEPNPNDDMATVSVEMEDPGDGKKKKFNMTMPSDNPELIDKLPPGDWIEFSAGGSAGG [r6_979_TrROS]	-0.621 ± 0.1	0.215 ± 0.11	-0.1 ± 0.096
SAGGSAGGWPLMVEYTPPGDGKTQTYPIPIKGPLSEIKDQIKENMPPGFREVEISPANIEKILKSAGGSAGG [r6_889_TrROS]	-0.76 ± 0.39	-0.952 ± 0.5	< -1
SAGGSAGGWQPIAEHEFENPEDGKKIKIYYWPENGMMRIEFPNGRKHVIPPGDPFKSIEEMIKASAGGSAGG [r6_72_TrROS]	1.15 ± 0.071	1.81 ± 0.059	1.54 ± 0.14
SAGGSAGGYIMIPPGAEIDVNPENGKIKIKFRNPDNGEEEKITFDVPPGVKIHMWDNWIMIELPSAGGSAGG [r6_804_TrROS]	3.3 ± 0.18	3.14 ± 0.12	3.29 ± 0.29

Sequence	folding stability dG unfold [1] [kcal/mol]	folding stability dG unfold [2] [kcal/mol]	folding stability dG unfold [3] [kcal/mol]
SAGGSAGGYRIRFKNGIEFKLPMTEGELKKMADNFPGFEVTEVEPVPPPPPPPEDLPPEQREQMSAGGSAGG [r6_881_TrROS]	-0.134 ± 0.36	0.148 ± 0.23	-0.0695 ± 0.32
SAGGSAGIAKKNNLTLKVTVEKKGDKLLVTVEITYPDGTKKTITIELNIKLVPEVPPVHPDEPGFGSAGGSA [r15_843_TrMRF]	2.58 ± 0.17	2.83 ± 0.1	2.81 ± 0.095
SAGGSAGKIEIPLPELGEVREEPVPDTVRIEVRFPDGRVLEATVLKDDTIEIREKGTGKLVATLPASAGGSA [r15_656_TrMRF]	1.44 ± 0.058	1.39 ± 0.043	1.44 ± 0.12
SAGGSAGKKPVEFKVKIMIFNPENGDMYMIEMTITIDPDGQIKIKIKLPDPPRLPPGMVIFIMVYISAGGSA [r15_488_TrROS]	4.08 ± 0.16	5.24 ± 0.085	5.01 ± 0.16
SAGGSAGKPRPIDIWIPLPPGAEEVKIEQLDIFIPDGWRIRIEEIEIDPEDPGYIRVTVKIQPLDDSAGGSA [r15_852_TrROS]	2.33 ± 0.1	2.78 ± 0.045	2.56 ± 0.16
SAGGSAGLEGVAKAILDKLPPNRKIAAFTVNEEEAKTATFTTPDGNEINITAAGDKIASIDIIDAESAGGSA [r15_175_TrMRF]	-1.09 ± 0.51	0.429 ± 0.19	0.0224 ± 0.1
SAGGSAGLRVRLADGSELSVSPIPDKLRVVVTLPNGARIPIDVEDGELVEIVRDPAVPADFYIEEISAGGSA [r15_709_JUSTAS]	0.419 ± 0.14	1.25 ± 0.043	1.06 ± 0.1
SAGGSAGLTLTFGDKEITLTPNPDTDTFTGTYPDGKPFTFKLTDDELYITYPDGTKEKIPLKDIKNSAGGSA [r15_448_TrMRF]	1.58 ± 0.066	1.42 ± 0.17	1.54 ± 0.21
SAGGSAGMELVPLPSPQLVPLTVETTPLPETGTTLVTETSPLGERTVTRVDPAGNVTTLSSTSTSTSAGGSA [r15_790_JUSTAS]	-0.389 ± 0.033	-0.192 ± 0.12	-0.226 ± 0.12
SAGGSAGMMATKPVEVEVEIPPDDPEAAKERVEAEIKAAFPGPVEVETTSYDPEKGLLKVKVVIKKSAGGSA [r15_1024_JUSTAS]	-0.497 ± 0.41	0.0964 ± 0.19	0.256 ± 0.33
SAGGSAGMMTDVEVEEYPGTGLVRITIRTPDAVVSGEGRFLSPELLEITISFPGAGKRTNELIPVRSAGGSA [r15_837_JUSTAS]	1.23 ± 0.072	1.26 ± 0.048	1.2 ± 0.088
SAGGSAGMPDPPLEGLKEALREALAANPGEEVTLTVPRADGRTLTVRGTKDGGIEITLPDGTRIALSAGGSA [r15_73_JUSTAS]	1.58 ± 0.036	1.52 ± 0.087	1.58 ± 0.072
SAGGSAGMPKVRIPIEEDPENGNILIRVKMPNSGREHEYHIPGNLKEAKENFEDHFGFDITDVEIWSAGGSA [r15_101_TrROS]	0.364 ± 0.23	-0.984 ± 0.58	-0.0816 ± 0.38
SAGGSAGMPSVTPVTVQMKGSREEAEAVAEELIEELRAKDPSVKVEAVEFSELPDGTYRVTITVTNSAGGSA [r15_718_JUSTAS]	3.71 ± 0.12	3.36 ± 0.057	3.49 ± 0.054
SAGGSAGMTPVSEAVVPGPNVTTLTTYRDPSSSALITPVTTTPPDGVPVTTTTLDLGSSTVTLSTTSAGGSA [r15_993_JUSTAS]	1.06 ± 0.053	0.583 ± 0.21	0.97 ± 0.082
SAGGSAGNPKPVVLEVEVVLDIPPENPDVLRAQAEAVARALAKPGLRVEVLDYDPDKAAFTIRITGSAGGSA [r15_563_TrMRF]	1.71 ± 0.039	1.84 ± 0.064	1.89 ± 0.077
SAGGSAGPALEIAKALTELYGAEEVTILDVHPDGYVHLHVRAVDYDDGEPVERELDVIFPIAPDDGSAGGSA [r15_646_TrMRF]	0.164 ± 0.06	1.52 ± 0.037	1.18 ± 0.11
SAGGSAGPDPKNKKIKVKVETFYLEDFGLKVEKIYIEGTGKPLLVFYFPDGSKLIINEDGTVKLIESAGGSA [r15_617_TrMRF]	1.79 ± 0.35	3.33 ± 0.14	2.89 ± 0.23
